Changes are numbered by the printed parent chain.

The target in assay [1] is His-HPV16 E7重组蛋白 (HPV16) (UniProt P03129). The assay is described as follows: ELISA, scFv 5μg/ml on 0.1μg/ml coated antigen, anti-Flag-HRP; selection threshold.
A further assay has as its target T1, His-Vac (HPV16).
T1 peptide: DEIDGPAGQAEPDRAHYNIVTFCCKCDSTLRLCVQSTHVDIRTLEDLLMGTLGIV
The assay is described as follows: indirect ELISA on peptides. For orientation: An ELISA detects its analyte on a solid surface through an enzyme-linked reagent.

The target of the next assay is T2, His-HPV18 E7重组蛋白 (HPV18, UniProt P06788 1-105).
T2 construct: also called His-HPV18 E7融合蛋白; not shown: His tag
T2 chain: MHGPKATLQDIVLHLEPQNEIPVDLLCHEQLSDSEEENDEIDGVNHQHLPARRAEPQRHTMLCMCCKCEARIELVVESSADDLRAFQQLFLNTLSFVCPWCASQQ
Kind of assay: indirect ELISA, 0.5μg/ml coat, antibody 1μg/ml.

The target in assay [2] is T3, 细胞内源的HPV16 E7蛋白 (CaSki, Siha cells, HPV16-positive cervical cells) (HPV16, UniProt P03129 1-98).
T3 construct: whole, on cells; Intracellular protein detected by immunocytochemistry in fixed, permeabilised cells; also called HPV16 E7内源蛋白
T3 sequence: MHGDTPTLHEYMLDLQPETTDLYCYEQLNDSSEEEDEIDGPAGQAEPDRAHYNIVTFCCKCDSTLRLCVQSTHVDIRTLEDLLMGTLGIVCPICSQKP
Kind of assay: immunocytochemistry, CaSki cells.

The target of assay [3] is His-HPV16 E7重组蛋白 (HPV16) (UniProt P03129). The assay is described as follows: indirect ELISA, antibody 0.1μg/ml on 0.1μg/ml coat; threshold for a positive clone.
For assay [4], the target named is T4, 细胞内源的HPV18 E7蛋白 (HeLa, Siha cells) (HPV18, UniProt P06788 1-105).
T4 construct: whole, on cells; Intracellular protein detected by immunocytochemistry in fixed, permeabilised cells
T4 sequence: T2 chain with E73K
Kind of assay: immunocytochemistry, HeLa and Siha cells.

B1: HPV16 E7单链抗体scFv001 (scFv, V domains shown)
VH: QSLEESGGRLVTPGTPLTLTCTASGSDISSYAISWVRQAPGKGLEWIGSISNSGNTYYASWAKGRFTIAKTSTTVTLKMTSLTTADTATYFCTRGAISGTPIWGPGTLVTVSS
VL: DPMLTQTASSVSAAVGGTVTISCQSSQSVYDNNWLGWYQQKPGQPPKLLIYSVSTLASGVPSRFKGSGSGTQFTLTISDLECDDAATYYCAGGFSGNIYTFGGGTNVEIK
As for B1, in the assay with His-HPV16 E7重组蛋白 (HPV16) [1], the OD值 was > 2 OD.

B2: HPV16 E7兔单克隆抗体RAB-001 (antibody, V domains shown)
VH: B1 VH
VL: B1 VL
notes: also called RAB-01; anti-HPV16 E7单抗RAB-001
B2: the binding result with His-Vac is on record as “no binding (tested: antibody 1μg/ml, peptide coat 2μg/ml)”; with His-HPV18 E7重组蛋白, “binds”; in assay [2], “binds”; in assay [4], “binds”. For the same molecule, in the assay with His-HPV16 E7重组蛋白 (HPV16) [3], the OD值 was > 1 OD.

B3: HPV16 E7兔单克隆抗体RAB-034 (antibody, from another filing, V domains shown)
VH: QSLEESGGRLVTPGTPLTLTCTVSGIDLSSYAMGWVRQAPGEGLDWIGSIGSSGRTYYANWAKGRFTISKTSSTTVDLKMTSLTTEDTATYFCARGVVNRSDIWGPGTLVTVSS
VL: DPMLTQTASSVSAAVGGTVTISCQSSQSVYDNNWLGWYQQKPGQPPKLLIYGASNLESGVPSRFKGSGSGTQFTLTISDVQCDDAATYYCAGGYSGNRYVFGGGTEVVVK
For the molecule B3, the OD值 with His-HPV16 E7重组蛋白 (HPV16) [3] was > 1 OD.

The record behind these values is patent CN106366186A (ATTOGEN BIOMEDICAL (SUZHOU) INC, dated 2017).
